B1: TNF receptor-associated factor 3 (Homo sapiens), Q13114 (parent)
chain: MESSKKMDSPGALQTNPPLKLHTDRSAGTPVFVPEQGGYKEKFVKTVEDKYKCEKCHLVLCSPKQTECGHRFCESCMAALLSSSSPKCTACQESIVKDKVFKDNCCKREILALQIYCRNESRGCAEQLMLGHLLVHLKNDCHFEELPCVRPDCKEKVLRKDLRDHVEKACKYREATCSHCKSQVPMIALQKHEDTDCPCVVVSCPHKCSVQTLLRSELSAHLSECVNAPSTCSFKRYGCVFQGTNQQIKAHEASSAVQHVNLLKEWSNSLEKKVSLLQNESVEKNKSIQSLHNQICSFEIEIERQKEMLRNNESKILHLQRVIDSQAEKLKELDKEIRPFRQNWEEADSMKSSVESLQNRVTELESVDKSAGQVARNTGLLESQLSRHDQMLSVHDIRLADMDLRFQVLETASYNGVLIWKIRDYKRRKQEAVMGKTLSLYSQPFYTGYFGYKMCARVYLNGDGMGKGTHLSLFFVIMRGEYDALLPWPFKQKVTLMLMDQGSSRRHLGDAFKPDPNSSSFKKPTGEMNIASGCPVFVAQTVLENGTYIKDDTIFIKVIVDTSDLPDP
partner: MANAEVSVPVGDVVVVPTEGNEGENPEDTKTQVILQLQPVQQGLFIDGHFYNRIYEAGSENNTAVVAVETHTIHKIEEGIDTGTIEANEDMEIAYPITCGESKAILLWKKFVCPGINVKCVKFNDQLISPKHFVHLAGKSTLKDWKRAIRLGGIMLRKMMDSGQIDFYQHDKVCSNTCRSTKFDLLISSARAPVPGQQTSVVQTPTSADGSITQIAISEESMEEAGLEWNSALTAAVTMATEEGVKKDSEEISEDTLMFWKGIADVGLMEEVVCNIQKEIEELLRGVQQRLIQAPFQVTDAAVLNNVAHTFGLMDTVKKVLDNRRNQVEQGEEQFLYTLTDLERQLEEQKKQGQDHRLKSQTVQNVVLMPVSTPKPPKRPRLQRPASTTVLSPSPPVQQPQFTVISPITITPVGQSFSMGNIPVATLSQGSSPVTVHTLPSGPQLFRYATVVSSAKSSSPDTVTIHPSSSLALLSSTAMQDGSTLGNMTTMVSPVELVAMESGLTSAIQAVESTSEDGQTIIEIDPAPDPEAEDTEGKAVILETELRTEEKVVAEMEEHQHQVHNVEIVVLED

Variants of: B1
Settings: with gmeb1_human GMEB1, Q9Y692

Variant	effect of a mutation on the interaction
MESSKKMDSPGALQTNPPLKLHTDRSAGTPVFVPEQGGYKEKFVKTVEDKYKAEKAHLVLCSPKQTECGHRFCESCMAALLSSSSPKCTACQESIVKDKVFKDNCCKREILALQIYCRNESRGCAEQLMLGHLLVHLKNDCHFEELPCVRPDCKEKVLRKDLRDHVEKACKYREATCSHCKSQVPMIALQKHEDTDCPCVVVSCPHKCSVQTLLRSELSAHLSECVNAPSTCSFKRYGCVFQGTNQQIKAHEASSAVQHVNLLKEWSNSLEKKVSLLQNESVEKNKSIQSLHNQICSFEIEIERQKEMLRNNESKILHLQRVIDSQAEKLKELDKEIRPFRQNWEEADSMKSSVESLQNRVTELESVDKSAGQVARNTGLLESQLSRHDQMLSVHDIRLADMDLRFQVLETASYNGVLIWKIRDYKRRKQEAVMGKTLSLYSQPFYTGYFGYKMCARVYLNGDGMGKGTHLSLFFVIMRGEYDALLPWPFKQKVTLMLMDQGSSRRHLGDAFKPDPNSSSFKKPTGEMNIASGCPVFVAQTVLENGTYIKDDTIFIKVIVDTSDLPDP [C53A;C56A]	with no effect

— IntAct's records for PubMed 32514408
